Data on one substance can be found in patent US20150273048A1.

Test [1] has as its target TL-M2e5x fusion protein (Toll-like receptor ligand sequence plus five tandem heterologous M2e domain). The test can be described thus: ELISA on VLPs with 14C2.
The target is the same in test [2]. The test can be described thus: ELISA on VLPs and virus with 14C2.

For the substance “Influenza A virus M2 monoclonal antibody 14C2 (Abcam Inc., Cambridge, Mass.)”, in test [1], the fold reactivity relative to M2WT VLP was greater than 60 fold. In addition, in test [2], the fold reactivity relative to A/Philippines/2/82 virus was determined as 500 fold.
